{
  "source": "paper PMC10963267",
  "about": "“Rapid discovery of high-affinity antibodies via massively parallel sequencing, ribosome display and affinity screening” (Nature Biomedical Engineering, 2023)",
  "binders": {"B1": {"name": "anti-HEL nanobody M5 (VHH)", "VHH": "QVQLQESGGGLVQAGGSLRLSCAASGSIFYYTDMGWYRQAPGKEREFVASIGYGGITYYADSVKGRFTISRDNAKNTVYLQMNSLKPEDTAVYYCAVQRSFESYGYWGHVYWGQGTQVTVSS", "notes": "synthetic nanobody from the yeast surface display library; also called VHH-M5; source: E. coli, periplasmic extract (vector pSBinit)"}, "B2": {"name": "anti-HEL nanobody M6 (VHH)", "VHH": "B1 VHH with F29S, Y30R, Y31D, T32P, G52S, Y53G, G55T, I56T", "notes": "synthetic nanobody from the yeast surface display library; also called VHH-M6; source: E. coli, periplasmic extract (vector pSBinit)"}, "B3": {"name": "anti-HEL nanobody M15 (VHH)", "VHH": "QVQLQESGGGLVQAGGSLRLSCAASGTISSQKLMGWYRQAPGKEREFVAAINDGATTNYADSVKGRFTISRDNAKNTVYLQMNSLKPEDTAVYYCAAYYDVRGYYWGTFGYWGQGTQVTVSS", "notes": "synthetic nanobody from the yeast surface display library; also called VHH-M15; source: E. coli, periplasmic extract (vector pSBinit)"}, "B4": {"name": "anti-HEL nanobody C1 (VHH)", "VHH": "QVQLQESGGGLVQAGGSLRLSCAASGSIFWAGYMGWYRQAPGKEREFVAAIDYGANTYYADSVKGRFTISRDNAKNTVYLQMNSLKPEDTAVYYCAVDRQPYYRRDNSHLYWGQGTQVTVSS", "notes": "synthetic nanobody from the yeast surface display library, picked as a random colony after R3 MACS; Framework is that of the library; source: E. coli, periplasmic extract (vector pSBinit)"}, "B5": {"name": "anti-HEL nanobody C2 (VHH)", "VHH": "QVQLQESGGGLVQAGGSLRLSCAASGNISADASMGWYRQAPGKEREFVAAIARGATTYYADSVKGRFTISRDNAKNTVYLQMNSLKPEDTAVYYCAVDQYDVTKRYIGHIYWGQGTQVTVSS", "notes": "as for B4"}, "B6": {"name": "anti-HER2 Fab HER20003 (Fab, V domains shown)", "VH": "QVQLVQSGAEVKKPGESLKISCKGSGYSFTSYWIAWVRQMPGKGLEYMGLIYPGDSDTKYSPSFQGQVTISVDKSVSTAYLQWSSLKPSDSAVYFCARHDVAYCSSSRCLTWPEYFQHWGQGTLVTVSS", "VL": "QSVLTQPPSVSAAPGQKVTISCSGSSSNIGNNYVSWYQQLPGTAPKLLIYGHTNRPAGVPDRFSGSKSGTSASLAISGFRSEDEADYYCASWDYTLSGWVFGGGTKLTVL", "notes": "as the heavy chain of m31 (G98A) with another CDR H3; as the light chain of m31; source: CHO cells, transiently transfected, purified (CaptureSelect CH1-XL)"}, "B7": {"name": "anti-HER2 Fab HER20004 (Fab, V domains shown)", "VH": "B6 VH with A102G, Y103Q, S105D, R108N, L110A, T111K", "VL": "B6 VL", "notes": "as for B6"}, "B8": {"name": "anti-HER2 Fab HER20006 (Fab, V domains shown)", "VH": "B6 VH with A102G, Y103W, S105T, R108N, L110A, T111K", "VL": "B6 VL", "notes": "as the heavy chain of m31 (G98A) with another CDR H3; as the light chain of m31; From the HER2affmat library; source: CHO cells, transiently transfected, purified (CaptureSelect CH1-XL)"}, "B9": {"name": "anti-HER2 Fab HER20009 (Fab, V domains shown)", "VH": "B6 VH with T111E", "VL": "B6 VL", "notes": "as for B8"}, "B10": {"name": "anti-HER2 Fab HER20010 (Fab, V domains shown)", "VH": "B6 VH with T111D", "VL": "B6 VL", "notes": "as for B8"}, "B11": {"name": "anti-HER2 Fab HER20007 (Fab, V domains shown)", "VH": "B6 VH with A102G, S105M, R108N, L110A, T111K", "VL": "B6 VL", "notes": "as for B8"}, "B12": {"name": "anti-HER2 Fab HER20008 (Fab, V domains shown)", "VH": "B6 VH with S105D, S107D, L110A, T111K", "VL": "B6 VL", "notes": "as for B8"}, "B13": {"name": "anti-HER2 Fab HER20011 (Fab, V domains shown)", "VH": "B6 VH with A102G, Y103L, R108N, L110A, T111K", "VL": "B6 VL", "notes": "as for B8"}, "B14": {"name": "anti-HER2 Fab HER20013 (Fab, V domains shown)", "VH": "B6 VH with A102G, S106T", "VL": "B6 VL", "notes": "as the heavy chain of m31 (G98A) with another CDR H3; as the light chain of m31; Top clone of the ML set (ml/mut); source: CHO cells, transiently transfected, purified (CaptureSelect CH1-XL)"}, "B15": {"name": "anti-HER2 Fab HER20015 (Fab, V domains shown)", "VH": "B6 VH with A102G, S105D, S106T, S107P, R108T, L110D, T111K", "VL": "B6 VL", "notes": "as the heavy chain of m31 (G98A) with another CDR H3; as the light chain of m31; From the ML set (ml/mut); source: CHO cells, transiently transfected, purified (CaptureSelect CH1-XL)"}, "B16": {"name": "anti-HER2 Fab HER20025 (Fab, V domains shown)", "VH": "B6 VH with A102G, S105D, S106T, S107P, R108T, L110N, T111K", "VL": "B6 VL", "notes": "as the heavy chain of m31 (G98A) with another CDR H3; as the light chain of m31; From the random set (random/mut); source: CHO cells, transiently transfected, purified (CaptureSelect CH1-XL)"}},
  "note": "Residue numbers refer to the chain shown, from its start. Names may count otherwise.",
  "data": [
    {"biological_target": "T1, hen egg lysozyme (HEL), biotinylated (Gallus gallus (hen egg white), UniProt P00698, biotin)", "T1 construct": "hen egg lysozyme, bought as HEL–biotin; In deep screening it was pre-complexed 1:1 with AF532-labelled streptavidin; in BLI it was loaded on a streptavidin tip; source: bought: GeneTex (GTX82960-pro)", "T1 sequence (P00698 19-147)": "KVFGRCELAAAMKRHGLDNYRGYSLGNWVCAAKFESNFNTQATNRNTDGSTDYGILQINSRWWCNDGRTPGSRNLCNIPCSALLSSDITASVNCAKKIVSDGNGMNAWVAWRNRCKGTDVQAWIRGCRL", "experiment": "BLI; HEL–biotin (25 µg ml^−1, 400 s) loaded on SA tip; nanobody from periplasmic extract at 50 nM in SuperBlock PBS; association 400 or 500 s, dissociation 600 s; referenced to a non-loaded SA tip; one concentration, 1:1 fit; Octet Red384", "settings": "one partner purified", "units": {"Kd": "nM"}, "values": [
      {"binder": "B1", "Kd": 19},
      {"binder": "B2", "Kd": 14.2},
      {"binder": "B3", "Kd": 9.81},
      {"binder": "B4", "binding result": "binds"},
      {"binder": "B5", "binding result": "binds"}
    ]},
    {"biological_target": "T2, human epidermal growth factor receptor 2 (HER2), biotinylated (Homo sapiens, UniProt P04626, biotin)", "T2 construct": "biotinylated human HER2, bought; also called ERBB2; source: bought: Acro Biosystems (HE2-H822R)", "experiment": "BLI; human HER2–biotin (5 µg ml^−1, 30 s) loaded on SA tip; purified Fab at 20 nM; DPBS with 0.1% BSA and 0.02% Tween 20; association 300 s, dissociation 600 s; one concentration, 1:1 fit", "settings": "both partners purified", "units": {"Kd": "nM", "fold improvement in affinity over G98A": "fold"}, "values": [
      {"binder": "B6", "Kd": 2.8},
      {"binder": "B7", "Kd": 3.4},
      {"binder": "B8", "fold improvement in affinity over G98A": "~300"},
      {"binder": "B9", "fold improvement in affinity over G98A": "~300"},
      {"binder": "B10", "fold improvement in affinity over G98A": "~300"},
      {"binder": "B11", "binding result": "binds"},
      {"binder": "B12", "binding result": "binds"},
      {"binder": "B13", "binding result": "binds"},
      {"binder": "B14", "Kd": 0.0607},
      {"binder": "B15", "fold improvement in affinity over G98A": "> 1000"},
      {"binder": "B16", "Kd": 0.283}
    ]}
  ]
}
